The values below are quoted from earlier work in publication PMC12152952.

In the data set the target is EphA2 (ephrin type-A receptor 2) (UniProt P29317). The note with it: 2'-fluoro on lowercase residues (all C and U; 2'-F pyrimidines), A and G are ribo.
EphA2 (ephrin type-A receptor 2), sequence (P29317 24-537): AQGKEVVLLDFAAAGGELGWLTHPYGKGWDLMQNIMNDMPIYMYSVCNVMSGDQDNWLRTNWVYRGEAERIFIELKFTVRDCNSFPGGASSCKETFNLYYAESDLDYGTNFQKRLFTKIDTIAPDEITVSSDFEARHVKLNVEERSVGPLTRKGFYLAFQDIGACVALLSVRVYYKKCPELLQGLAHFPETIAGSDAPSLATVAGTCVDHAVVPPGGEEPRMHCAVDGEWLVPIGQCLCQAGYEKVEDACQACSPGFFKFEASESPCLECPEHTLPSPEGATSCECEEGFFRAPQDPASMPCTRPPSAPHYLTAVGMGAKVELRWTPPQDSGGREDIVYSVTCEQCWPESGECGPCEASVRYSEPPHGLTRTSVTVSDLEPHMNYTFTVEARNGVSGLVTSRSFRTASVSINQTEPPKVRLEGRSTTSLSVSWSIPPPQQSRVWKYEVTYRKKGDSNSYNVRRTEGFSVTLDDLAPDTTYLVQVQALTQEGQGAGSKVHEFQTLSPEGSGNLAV

Regarding CCUGUUGUUCGACAGGAGGCUCACAACAGG [A40s], the Kd is 0.76 nM.

One may read the Kd as the concentration at which binding is half-saturated.
